Results reported in PMC8244865, “Recruitment of phospholipase Cγ1 to the non-structural membrane protein pK15 of Kaposi Sarcoma-associated herpesvirus promotes its Src-dependent phosphorylation” (PLoS Pathogens, 2021).
Changes are numbered by the printed parent chain. Numbers in names are those of the source. Non-standard residues stand in square brackets, D forms with d. No end group written: not given here. pY = N[C@@H](Cc1ccc(OP(=O)(O)O)cc1)C(=O)O

Legend:
[1] = target: GST-fused pK15 cytoplasmic tail (pK15 CT WT), phosphorylated in vitro by Src (UniProt Q9QR69); assay: AlphaLISA; conditions: read off a plot
[2] = target: GST-pK15 CT N2 truncation mutant, phosphorylated in vitro by 2xStrep-Src (UniProt Q9QR69); assay: AlphaLISA; conditions: parent: est. 17000; read off a plot
[3] = system: PLCγ1 tSH2 domain (Src-mediated phosphorylation, Y^783); assay: in vitro Src kinase assay, PLCγ1 tSH2 Y783 phosphorylation; type: biochemical; conditions: 0.6 μM tSH2, 0.085 μM Src, 1.25–5 μM peptide or fixed 5.0 μM; 37°C; 1 hour or 45 min (method); pY783 Western blot
Method: Fig 7 The pK15 CT domain enhances Src-mediated phosphorylation of the PLCγ1 tSH2 domain. (A) The purified PLCγ1 tSH2 domain (0.6 μM) was incubated with limiting amounts (0.085 μM) of recombinant purified Src kinase expressed in insect cells in the presence of increasing concentrations (1.25–5 μM) of phosphorylated peptides representing the last 12 (pK15 12mer) or 35 (pK15 35mer) amino acids of the pK15 cytoplasmic domain for 1 hour at 37°C. The reaction was stopped using SDS sample buffer and analysed by SDS-PAGE and Western blot using an antibody to the PLCγ1 pY^783 residue (top panel) or to the His tag on the recombinant tSH2 domain (bottom panel). (B) Same as above, except that a fixed concentration (5.0 μM) of the 12mer peptide, the 35mer peptide or the pK15 truncation construct GST-pK15 CT^N2 [51] were used. The increased phosphorylation of the tSH2 domain in the presence of the 35mer peptide and pK15 CT^N2 can be seen. (C) Increasing concentrations of the phosphorylated pK15 12mer peptide were used to inhibit the increased src-mediated phosphorylation of tSH2 induced by 2.5 μM of the pK15 35mer peptide. Experimental conditions were as in panel A.
To test the impact of a pK15 CT fragment (pK15 CT^N2) or phosphorylated pK15 peptides representing the last 12 (DDLp[…]) or 35 ([…]pYEEVLFRN) amino acids of pK15 CT on the Src-mediated phosphorylation of the PLCγ1 tSH2 domain, GST-pK15CT^N2 was first phosphorylated with Src in vitro as described in the preceding paragraph. Phosphorylated GST-pK15 CT^N2 or the phosphorylated pK15 peptides, suspended in 50 mM Tris pH7.4, 300 mM NaCl, 1 mM DTT, were then added to the purified recombinant tSH2 domain (0.6 μM) together with a limiting amount of recombinant Src kinase (0.085 μM) in kinase buffer (20 mM Tris pH7.4, 20 mM NaCl, 1 mM DTT, 10 mM MgCl2, 0.2 mM ATP, 0.5 mM Sodium orthovanadate, 0.5 mM β-glycerophosphate) and the reaction allowed to proceed for 45 min. The reaction mix was then analysed by Western blot using an antibody to the phosphorylated Y^783 in the linker region of the PLCγ1 tSH2 domain and an antibody to the 5x His tag. To test the inhibitory effect of the phosphorylated 12mer pK15 peptide on the enhancement of PLCγ1 tSH2 domain phosphorylation induced by the pK15 35mer peptide, increasing concentrations (1.25–5.0 μM) of the 12mer peptide were added to a reaction mix containing the purified recombinant tSH2 domain (2.5 μM), the phosphorylated pK15 35mer (2.5 μM), and recombinant Src kinase (0.085 μM). Following a 45 min incubation at 37°C, the reaction mixture was analysed by Western blot as above.

[4] = target: T1, GST-pK15 CT N2 truncation mutant, phosphorylated in vitro by 2xStrep-Src, Q9QR69; assay: AlphaLISA; conditions: chain shown with the change;, read off a plot
T1 chain: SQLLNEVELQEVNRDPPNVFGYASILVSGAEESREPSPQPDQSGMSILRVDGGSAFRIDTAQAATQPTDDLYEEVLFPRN

[5] = target: T2, GST-fused pK15 cytoplasmic tail (pK15 CT WT), phosphorylated in vitro by Src, Q9QR69; assay: AlphaLISA; conditions: chain shown with the change;, read off a plot
T2 chain: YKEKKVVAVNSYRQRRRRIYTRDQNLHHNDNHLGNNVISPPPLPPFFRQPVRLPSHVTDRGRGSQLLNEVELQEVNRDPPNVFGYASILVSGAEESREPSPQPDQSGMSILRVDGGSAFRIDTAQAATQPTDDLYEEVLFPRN

[6] = target: T3, PLCγ1 tSH2 R586L (aa 545-790) (UniProt P19174 545-790, R586L); assay: microfluidic diffusional sizing (Fluidity One-W); 200 nM 5,6-FAM peptide held constant, PLCγ1 domains varied from 0 nM to 8000 nM, room temperature, 100 mM MES, 150 mM NaCl, 3 mM TCEP, pH 6.5; hydrodynamic radius fitted; triplicate; conditions: both partners purified
T3 construct: source: E. coli BL21(DE3), purified (HisTrap, 3C cleavage, SEC)
T3 sequence (looked up): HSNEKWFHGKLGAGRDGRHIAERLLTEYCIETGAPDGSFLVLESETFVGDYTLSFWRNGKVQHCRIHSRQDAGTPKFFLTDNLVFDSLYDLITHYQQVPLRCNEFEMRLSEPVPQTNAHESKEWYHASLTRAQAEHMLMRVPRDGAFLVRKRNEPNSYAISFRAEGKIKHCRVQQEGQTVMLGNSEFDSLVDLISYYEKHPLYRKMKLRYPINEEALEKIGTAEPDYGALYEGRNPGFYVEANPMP

[7] = target: T4, PLCγ1 cSH2 domain (aa 668-790) (UniProt P19174 668-790); assay: as above; conditions: both partners purified
T4 construct: PLCγ1 C-terminal SH2 domain with the cSH2-SH3 linker, residues 668-790; 15N-labelled for the NMR titration; also called cSH2 (668–790); source: E. coli BL21(DE3), purified (HisTrap, 3C cleavage, SEC)
T4 sequence (looked up): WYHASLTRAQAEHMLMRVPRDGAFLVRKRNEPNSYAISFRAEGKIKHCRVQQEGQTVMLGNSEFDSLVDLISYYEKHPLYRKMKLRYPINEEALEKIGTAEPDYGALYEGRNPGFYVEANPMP

[8] = target: T5, PLCγ1 tSH2 R694L (aa 545-790) (UniProt P19174 545-790, R694L); assay: as above; conditions: both partners purified
T5 construct: source: E. coli BL21(DE3), purified (HisTrap, 3C cleavage, SEC)
T5 sequence (looked up): T3 sequence (looked up) with L42R, R150L

[9] = target: T6, PLCγ1 tSH2 domain (aa 545-790) (UniProt P19174 545-790); assay: as above; conditions: both partners purified
T6 construct: also called WT tSH2; source: E. coli BL21(DE3), purified (HisTrap, 3C cleavage, SEC)
T6 sequence (looked up): T3 sequence (looked up) with L42R

[10] = target: T7, PLCγ1 nSH2 domain (aa 545-662) (UniProt P19174 545-662); assay: as above; conditions: both partners purified
T7 construct: 15N-labelled for the NMR titration; source: E. coli BL21(DE3), purified (HisTrap, 3C cleavage, SEC)
T7 sequence (looked up): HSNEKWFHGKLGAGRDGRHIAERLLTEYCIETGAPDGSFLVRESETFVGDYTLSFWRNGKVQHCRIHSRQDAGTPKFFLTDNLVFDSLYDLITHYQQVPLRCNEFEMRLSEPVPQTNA

Molecule “His-tagged purified PLCγ1 cSH2 domain R694L” has a response ([1]; parent: est. 19000) of 1000 and a response [2] of 250.

With “His-tagged purified PLCγ1 SA (γ-specific array) R586L; R694L” the response ([1]; parent: est. 4000) was 700.

In the case of “His-tagged purified PLCγ1 tandem SH2 (tSH2) domain R586L; R694L”, the response ([1]; parent: est. 13000) is reported as 350.

With “His-tagged purified PLCγ1 SA (γ-specific array) R694L” the response ([1]; parent: est. 4000) was 1400.

For “SILRVDGGSAFRIDTAQAATQPTDDLpYEEVLFRN [pK15 35mer, phosphorylated pK15 peptide corresponding to the last 35 amino acids of pK15 CT]”, the “effect on Src-mediated phosphorylation of PLCγ1 tSH2” value [3] was “enhanced the Src-mediated phosphorylation of the PLCγ1 tSH2 domain in a dose dependent manner”.

“His-tagged purified PLCγ1 tandem SH2 (tSH2) domain R694L” was tested, and the response ([1]; parent: est. 13000) was 850.

B1: His-tagged purified PLCγ1 tandem SH2 (tSH2) domain R586L (protein)
chain: T3 sequence (looked up)
B1 showed a response ([4]; parent: est. 14000) of 12000 and a response ([5]; parent: est. 13000) of 9800.

B2: His-tagged purified PLCγ1 SA (γ-specific array) R586L (protein)
chain: SIKNGILYLEDPVNHEWYPHYFVLTSSKIYYSEETSSDQGNEDEEEPKEVSSSTELHSNEKWFHGKLGAGRDGRHIAERLLTEYCIETGAPDGSFLVLESETFVGDYTLSFWRNGKVQHCRIHSRQDAGTPKFFLTDNLVFDSLYDLITHYQQVPLRCNEFEMRLSEPVPQTNAHESKEWYHASLTRAQAEHMLMRVPRDGAFLVRKRNEPNSYAISFRAEGKIKHCRVQQEGQTVMLGNSEFDSLVDLISYYEKHPLYRKMKLRYPINEEALEKIGTAEPDYGALYEGRNPGFYVEANPMPTFKCAVKALFDYKAQREDELTFIKSAIIQNVEKQEGGWWRGDYGGKKQLWFPSNYVEEMVNPVALEPEREHLDENSPLGDLLRGVLDVPACQIAIRPEGKNNRLFVFSISMASVAHWSLDVAADSQEELQDWVKKIREVAQ
Molecule B2 has a response ([4]; parent: est. 700) of 300 and a response ([5]; parent: est. 4000) of 3800.

B3: 5,6-FAM-labelled phosphorylated pK15 12mer peptide (peptide)
peptide: {5,6‑FAM}-DDL[pY]EEVLFPRN
notes: last 12 residues of KSHV pK15 cytoplasmic tail; also called 5,6-FAM-labelled pK15 (12mer); phosphorylated pK15 peptide; source: synthetic peptide, bought: Caslo ApS
B3 was tested, and the Kd [6] was 440 ± 77 nM, the Kd [7] was 166 ± 30 nM and the Kd [8] was 6320 ± 475 nM. For the same molecule, the Kd [9] was 1500 ± 450 nM and the Kd [10] was 180 ± 43 nM.
